{"source": "the domain aggregation screens of Martell et al. (2025)", "data": [{"assay": "soluble fraction after stress (log2 fold change); higher = more stays soluble; pooled small domains, quantitative proteomics", "details": "stress: 50 degC", "method_in_brief": "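Custom libraries of small protein domains were pooled and measured in a high-throughput format, with quantitative proteomics as the read-out. Each library was stressed at 50°C. The value is the log2 fold change in the amount of each protein that stays soluble after stress, used as a measure of aggregation propensity; higher values mean more of the protein stays soluble.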", "values": [{"sequence": "HMGDTIGEQKAKEIALEHAGLKSSDVTFIRAVLEYDDRNWEYDVEFYDADTYTEYDYEIDAHTGKILSFDH", "soluble fraction (log2)": 0.0993}, {"sequence": "HMGDTPVDFSEFIRWVDTGVVDRVELTGNEIVGTSSSGERFSTYAPPQYEGLGNKLIERDIVVVATAA", "soluble fraction (log2)": -0.164}, {"sequence": "HMGDTVSGTMLNLKPGVRVVHQIFGPGRVEETTGASLAEFRVTVRFEQKGLKTLLLQYAALQVINSEN", "soluble fraction (log2)": -0.795}, {"sequence": "HMGDVKLNAIYNFLKEFSALNGFPPSVREIGAKFGIKSTSTVHYYLEKLKQSGVIQQEENKKRAVVIN", "soluble fraction (log2)": -0.369}, {"sequence": "HMGDWEDFWEKEARRRKLSLDYQVVRSLSRWSREYDWGEEDVEQFLSQFPEGETVKMEDVELYFE", "soluble fraction (log2)": -1.12}, {"sequence": "HMGDYDHYVVKVEDTLLNWLVTNVTTMSRNKLKDILAGQGIKVNGKITTKYDYPLTPGMKIAISKTKR", "soluble fraction (log2)": -0.275}, {"sequence": "HMGEAIPVPDIRHKSQADAERLLQDQGLAMMVTDTGYVKTLPANYILEQIPVAGEKVKSGHVVYVIINSG", "soluble fraction (log2)": 0.0717}, {"sequence": "HMGEGIRIDSTAVVQVGEKMYAYLGGDGFSKEFWTNLPASGELAVTLKFEPIPMDAESLDFYEMPA", "soluble fraction (log2)": 0.0315}, {"sequence": "HMGEILYSGVLKGGDGPEATKLALEKFLGEANTQVAGRIGVQPETQVIWLSREAVDSAASTLSQHKGNMYV", "soluble fraction (log2)": -0.085}, {"sequence": "HMGELDFYEEMRDDYLTGKIWNVGEIVEAKGMIGEIVRKGTNYISFVTDDNKVHKAWLHEIKL", "soluble fraction (log2)": -0.634}, {"sequence": "HMGELRAPLPGVIVSIPVKEGDEVKAGQAILIIEAMKMESEISSPIDAKVAKIVVKERVLVQEGDILIILE", "soluble fraction (log2)": -0.702}, {"sequence": "HMGEMTDFETLRDMYLTGQIWNIDDLIEANGVEGRIVRRGTNYIAFNDRDGKVHKAWLHEVTINE", "soluble fraction (log2)": -0.836}, {"sequence": "HMGENTIFSGVLGEGRLDSALAHALPQFSRARIQGLIAEDAVLIAGKATNDAASKKFAGQSFELSVPAPRP", "soluble fraction (log2)": 0.105}, {"sequence": "HMGEPQAWNELIGNLLRQWEARQTGWTPARKREALDRVLGAADPAALYTRLQGLLKSWTQAMTDADA", "soluble fraction (log2)": -1.7}, {"sequence": "HMGEQETILKGDVNRDGVVDVNDVTHLQIHISNDDKNPLIDVTNKAWFDAADMYGDGKLDILDATALQIYI", "soluble fraction (log2)": 0.11}, {"sequence": "HMGERVDGVVKFFNGQKGFGFIQREDGGPDAFVHISAVERAGMAGLDEGQRVSFELELDRRGKQAAINLTP", "soluble fraction (log2)": 0.00122}, {"sequence": "HMGESYGPVRRGETLWSIAEKVKPAGVSTQKELAAIYAANPQAFIRGDINLLKAGAELRLPSPEAL", "soluble fraction (log2)": 0.172}, {"sequence": "HMGESYQIKDGELLVDIAQRVKPAGMTLRQTINALVAANPRAFRNGNPDLMYRGATLTIPDGDTLRRLAH", "soluble fraction (log2)": 0.131}, {"sequence": "HMGEVQALIPGLVSKLFVVEGESVKIGQKLIILEAMKMENEIASPINGTIKKIYIKSGDKIDKGSIIMEIT", "soluble fraction (log2)": -0.336}, {"sequence": "HMGEVVSAPMPGTILSIKVSQGQTVKRGQVLLILEAMKMENEIVAPRDGVVVQISTTQGASVETGAPLVVL", "soluble fraction (log2)": -0.0677}, {"sequence": "HMGEVYPSDIVEKMKQANLHILEGTLYPLLTRLKNAGLLNYRWVESVTGPPRKYFVMTEEGKAAF", "soluble fraction (log2)": 0.0419}, {"sequence": "HMGEWHQMLRSWGETELKNGRQNILDEAVPAFERAMIETALAHTSGRKKDAALLLGWGRNTLTRKLQEHSI", "soluble fraction (log2)": -0.0702}, {"sequence": "HMGEYGVLWYLLTKKEAVSAGELKEKLHVVPGRMTDILTALEKKGLIIRQKNKTDKRVVDVVLTKEGEKEA", "soluble fraction (log2)": -0.471}, {"sequence": "HMGFAEFWLAYPKKVGKGEAERKWKTLKPDAGAVLSAVKRQSASEQWRKDGGRYIPNPATWLHQRRWE", "soluble fraction (log2)": -0.0238}, {"sequence": "HMGFALLIAIERTGNTTYFVKLTLIKKGSDSDVLKDSFSVSQGDLVGTATYDSVIANRIREKTAAMWQKAT", "soluble fraction (log2)": -2.13}, {"sequence": "HMGFDTSMNKYTIDDLLKLLELGSNPSQAEIVNKITNFNTIFVDNSGVIQFLNNIQDKLLDNFK", "soluble fraction (log2)": -0.396}, {"sequence": "HMGFDTVVEKVLGLITSRPMTSRDIQMTLGRSREHTSRLMNRLYKEGLVDRNTSSKPFSYIITEKGREKI", "soluble fraction (log2)": -0.0114}, {"sequence": "HMGFPAPFDGKAVAELRRRLGLTRRGLAEELSVSPSTVDKWEQGDVALRSPALTILKILWHQGLKALPP", "soluble fraction (log2)": -1.52}, {"sequence": "HMGFSDDEHNALADADLKKALEVTTNKSETQYNIAKLIYSYIISLGDKKPYGDWSYDKALSIIHDA", "soluble fraction (log2)": 0.0519}, {"sequence": "HMGGAVQIAEQIAARIKDGALRPGELLPPVRQLAAELEVNPNTVASAYARLRDAGLVATRGRAGTVVLEPP", "soluble fraction (log2)": -0.172}, {"sequence": "HMGGAYATVKLSSSSSQLNVRASASTASRVVARLSHGFRVEVLGVSGDWVKIRALGVEGYVARAYLALEGE", "soluble fraction (log2)": -0.374}, {"sequence": "HMGGEAEVLQSIDEGREVEVRSVAADGSAEVIYRGARWRARAAVGSLAAGRWTIGRVDGTELVLEK", "soluble fraction (log2)": -0.0207}, {"sequence": "HMGGEEKALLFGDVDIREAGEITQRLEQAEIPYELRGDGSSIFVPRSRVMEARMMISADGLL", "soluble fraction (log2)": -0.0992}, {"sequence": "HMGGEKLPAPVAGTLLRYSVAEGARVSEGQTVIILESMKMELEINTPKAGVIHFLAAVGAQVAEGDTLAEI", "soluble fraction (log2)": -1.82}, {"sequence": "HMGGGTPEERLATLAAIAERQEMLLERLGPNNPLVSLGQYSRTLSRMVQLAGFKDASQYFNELPLDFQMPE", "soluble fraction (log2)": -0.212}, {"sequence": "HMGGHLAYGFSRRFGLLIDEQQGEPVIIARPDYSPVHYAEARRIVGQPAALRVVDEQAFNQLLQSQQESGA", "soluble fraction (log2)": -0.346}, {"sequence": "HMGGLENNLKQARNRVGLTQSELARQAGISRQAYSSLESGAANPSTEVALRLAQALSERVESLFYLPE", "soluble fraction (log2)": -0.0819}, {"sequence": "HMGGNVYAYRLTASVKSGEQIPANKIEKVKMLSSDLPTNYVPDTVNVTAYKSKLDLQAGTILSTSLLYEN", "soluble fraction (log2)": 0.0242}, {"sequence": "HMGGPTARQMEVLSLIAQGLPNKRIADELGIAERTVKLHITALLDSLGARNRTHLLVVARERGM", "soluble fraction (log2)": -2.21}, {"sequence": "HMGGQKTREAIFDLIMTNSKITSAQIAEILGIHRSGVARHLKKLQEEGLIKREGPDNGGQWIVIK", "soluble fraction (log2)": -0.422}, {"sequence": "HMGGQYQVRPGETLNQIAARVRPSNMSLSETQKAIIQANPDIFKNGNPNLIFAGDILRIPTGNQI", "soluble fraction (log2)": 0.211}, {"sequence": "HMGGTTLIAKQATVTGDIQFSSNLDIEGRVVGAISVEPGKEAMLHVVEGGSVEGEIRVPSAVINGKVTGDI", "soluble fraction (log2)": 0.101}, {"sequence": "HMGGVEWLTHPIGPRDSLQVLARAGLEARPTSDGDYEIYGQERWPQRDQARLMGWLRRFGQWVWQALYDK", "soluble fraction (log2)": -0.378}, {"sequence": "HMGHEALSSKLDEIQGVGKEKRSLLLDHFKTFERIKNASMEELEAVPSLGKNTAKAVFRFFHS", "soluble fraction (log2)": 0.07}, {"sequence": "HMGHLTWTVTGIGHERRARTVAEQMSSVFGVLEARASSAGTVYLEFEREKIDEGGLEASLKRMGVTRVV", "soluble fraction (log2)": -1.71}, {"sequence": "HMGIAFDYDAGRFDQVPPNLVEKWQQAYPAVDVLSELRRMEAWASANPVNRKSNWQRFIVNWLTRAQDRAG", "soluble fraction (log2)": -0.215}, {"sequence": "HMGIAKYRQVTEWIQNRIATGELNRGDQIESENDISRTFGISRQTVRHALGLLEQQGILTRIQGRGTFVRD", "soluble fraction (log2)": -0.661}, {"sequence": "HMGIFDIIQEINRQGVTVLLIEQNANMALKIADVGYVLETGRISLTGSGRELLANEAVKKAYL", "soluble fraction (log2)": -0.0514}, {"sequence": "HMGIKYTNQRVEILNFLKDNLSHPTVDDVYEGVKKKLTRISKATVYQNLKFLASKGLIQEVNIKGVSRFEP", "soluble fraction (log2)": -1.32}, {"sequence": "HMGIRQGKVTSTFVNVRSGASTANAKVGELHKGDVVSLIEKVANFWRIGPGQFVSADYIQVLAS", "soluble fraction (log2)": -0.508}, {"sequence": "HMGIRYQLADDVTDEQITAMTGKKAKIAAAIKAAGSAVSKMNVAGEMGYDKQNPINKDFMELVDAGIIVPS", "soluble fraction (log2)": 0.00228}, {"sequence": "HMGISEKVINIIETYTMIARKKYPSVKSLAEHFNVSERTVHRYLEIIKMIDVVDYDREKKGYFFPYGDR", "soluble fraction (log2)": -1.11}, {"sequence": "HMGISSESIKTFIREIVENEDPKAPLSDQTMVELLAERGIDISRRTVAKYRDEMNLPSSSKRKR", "soluble fraction (log2)": 0.462}, {"sequence": "HMGKAMIDWEREQSILRILLRQKALTTEQAREVYQDGMREDLSALEMGVQRGYFTHEQLREATGGE", "soluble fraction (log2)": 0.0179}, {"sequence": "HMGKASNEVYEVISSKIRTGEWAPGYKLPSEPTLAEEFGVSRATVREALQELISRGRIKREQGRGTYVLH", "soluble fraction (log2)": 0.161}, {"sequence": "HMGKAVTLEEARAIIQAKVPGASPDMIQIWEEHGDGRGRYEGELSYNNMKYEFEMDPKTGIIFDWNA", "soluble fraction (log2)": -0.224}, {"sequence": "HMGKEDISQINKLYQNQILDYETYIDTLNSFNIDTKSKDFKNLLDLFIKKSISFETFNKGIINIHNKS", "soluble fraction (log2)": 0.11}, {"sequence": "HMGKFMVQVGAFSRINGAEITRTKYDNLGTHKAIIKNLDGMNRVFLTGFLSEDEARDFIASSNLKGAFIIR", "soluble fraction (log2)": -1.66}, {"sequence": "HMGKGVDKIMKMADDYSYGKIAGKTVDVMTAKLFQAAYNKAPQKAKDKVDKMNEKQLYIFMMNLWKRF", "soluble fraction (log2)": -0.777}, {"sequence": "HMGKIILLFSDDDGVFDTALYRVRNYDGHRFAQSLGNAEMKWRHSEDEYFDFVLTSLREDGYDIEEIE", "soluble fraction (log2)": -1.22}, {"sequence": "HMGKIINMSKVKQVLRLHTQGVSNRRIALDLGLYKGTVNSYIRKIKDHGYDIAEVLKLDDPVLESKLFA", "soluble fraction (log2)": -0.227}, {"sequence": "HMGKKGPELNDNEKIIFNIISKENSMNLDDLKNRTELSNKQWDKAIKGLRSHELVNIEKIDDQLLIHL", "soluble fraction (log2)": 0.196}, {"sequence": "HMGKKQLVVDLQSIITDVPAALKSYGLEIGQDGKSLIYTYDTKGERTGITTLLNDLQKAGLQMTDMKTQQ", "soluble fraction (log2)": 0.0536}, {"sequence": "HMGKPTPASQVATRWLAGDLPETLPVAGPAPSFETLARSVSTDFHPRAVLQELLRLGVAEEADGRVRLLK", "soluble fraction (log2)": 0.00959}, {"sequence": "HMGKQPLYEQLVDLLRDRIENDMETGELLPSERKLAHHFGLSRTTVRLAMDRLETLGLITRVHGKDTFVAE", "soluble fraction (log2)": -1.17}, {"sequence": "HMGKREKTKVANRQAILVAARAVFAELGYEAATVRDIIRGTDLASGTFYNYFKSKEEVFDALADDGA", "soluble fraction (log2)": -1.17}, {"sequence": "HMGKSETALELIKRGHRLIADDAVEITRIGSTLSGTAPELIRNYLEVRGVGVIDVEKLFGVGAVQDSTQI", "soluble fraction (log2)": 0.0401}, {"sequence": "HMGKSPLDALSAREKEVLTYITRGVSINDIAAVLYLSPKTVSTHKTNLMQKLGIENNADLILFGVNHGLND", "soluble fraction (log2)": -0.513}]}]}
